Laboratory results published in patent US10577428B2, “Anti-factor XI monoclonal antibodies and methods of use thereof” (Oregon Health & Science University, priority 2007, dated 2020).
Entries after “also recorded” stand apart in the source; their conditions may differ. Read-outs that look alike come from different tables or passages of the source.

Assays:
Human FXI in plasma = target: T1, Human FXI in plasma (Homo sapiens, UniProt P03951); assay: Western blot of human plasma; type: binding
T1 construct: antibody 1A6 recognizes Factor XI in human and non-human primate plasma; from tissue; host or cells: normal human plasma (A4); whole human blood or reconstituted FXII-deficient human blood (A9)
Description: Results from a Western Blot study corroborating that anti-factor XI monoclonal antibody 1A6 recognizes Factor XI in human and non-human primate plasma is shown in FIG. 7A.

[1] = tested on: recombinant FXI proteins with mutations within the A3 domain; assay: Western blot binding to recombinant FXI A3 domain alanine mutants; parameters: species or system human; conditions: 2 or 3 adjacent amino acids replaced with Alanine (FIG. 11)
Experimental: Binding studies were also conducted using recombinant FXI proteins involving mutations of different amino acids within the A3 domain to determine amino acids important for the binding of monoclonal antibody 1A6. An example of the binding of monoclonal antibody 1A6 to a panel of 25 such recombinant proteins in which 2 or 3 adjacent amino acids within the A3 domain were replaced with Alanine is shown in FIG. 11. […] Based on such studies, amino acids important for the binding of monoclonal antibody 1A6 to the FXI A3 domain were determined, and are shown in FIG. 12 (amino acids 183 to 197, 203 to 204, 234 to 236, 241 to 243, 252 to 254, and 258 to 260 of SEQ ID NO:1).

platelet rich plasma = assay: Platelet aggregation in platelet rich plasma in response to ADP and collagen; type: cell-based, baboon; conditions: platelet rich plasma of treated animals versus control
baboons (Papio anubis) = assay: Vascular graft occlusion studies, collagen coated 2 mm i.d. grafts, high arterial shear; type: in vivo, baboon (Papio anubis); conditions: 2 mm i.d. grafts
Experimental: Thrombus formation was initiated within the baboon AV shunt by interposing a thrombogenic segment of prosthetic vascular graft (ePTFE, WL Gore & Co., Flagstaff, Ariz.), as previously described (Hanson et al. (1993) J. Clin. Invest. 92:2003-2012). To consistently trigger platelet-dependent thrombus formation, the clinical graft segments were coated with immobilized collagen. Twenty mm long grafts having internal diameters (i.d.) of either 2 or 4 mm were filled with equine type I collagen (1 mg/ml; Nycomed Arzenmittel, Munich, Germany) for 15 min, and then dried overnight under sterile airflow. This method produced a uniform collagen coating within the graft lumen as determined by scanning electron microscopy (FIGS. 1B and 1C). The thrombogenic collagen-coated grafts were then incorporated between segments of silicon rubber tubing, and deployed into the AV shunts (FIG. 1A). The grafts were exposed to blood for up to 60 min. During each experiment, the blood flow rate through the graft was restricted to 100 ml/min by clamping the proximal silicone rubber shunt segment, thereby producing a mean wall shear rate (MWSR) in the 4 mm grafts of 265 s^−1, while in the 2 mm grafts the initial MWSR was 2120 s^−1. Flow rates were continuously monitored using an ultrasonic flow meter (Transonics Systems, Ithaca, N.Y.). […] Baseline blood flow was restored through the permanent shunt after each experiment. In the 2 mm diameter grafts blood flow rates progressively declined due to thrombus formation. The grafts were removed from the AV shunts when the flow rate fell from 100 ml/min to below 20 ml/min, signaling imminent occlusion. The time from initiation of blood flow to graft removal (<20 ml/min blood flow) was taken as the occlusion time.
Occlusion studies were performed using 10 mm long 2 mm i.d. collagen coated devices which produced high arterial shear rates (2120 s^−1 at 100 ml/min clamped blood flow). Accumulation of labeled platelets onto 2 mm thrombogenic grafts were measured in 3-min intervals using a gamma scintillation camera. Flow was maintained at 100 ml/min by proximal clamping for as long as possible, and then allowed to decrease as the propagating thrombus began to occlude the device. A final blood flow rate of 20 ml/min was used as a cutoff for occlusion, since a fully occlusive thrombi and lack of blood flow through the device could lead to occlusion of the shunt and a significant loss of blood for the animals.
Since aspirin is a less antihemostatic agent than heparin, and it is often included in the standard treatment of arterial-type platelet-dependent thrombosis, ASA was used in the current studies with the occlusion-prone 2 mm i.d. grafts as a long-acting positive control. ASA (32 mg/kg) was administered orally 2-4 h before each thrombosis experiment, as described previously (Hanson et al. (1985) J. Clin. Invest. 75:1591-1599). Four weeks were allowed for washout of each aXIMab and ASA before performing new experiments in the same animal.

B1: aXIMab: neutralizing murine IgG/kappa anti-human FXI monoclonal antibody from hybridoma 1A6; binds A3 domain; VH SEQ ID NO:3, VL SEQ ID NO:5 (antibody, listed as Mus musculus, V domains shown)
VH: QVTLKESGPGILKPSQTLSLTCSFSGFSLSTSGMGVGWIRQPSGKGLEWLAHIWWDDDKYYNPSLKSQLTISKDTSRNQVFLKITSVDAADTATYYCARKRSSVVAHYYAMDYWGQGTSVTVSS
VL: DIVLTQSPASLAVSLGQRATISCKASQSVDYDGDSYLNWYQQKPGQPPKLLIYAASNLESGIPARFSGSGSGTDFTLNIHPVEEEDAATYYCQQSNGDPWTFGGGTKLEIK
With B1 the “recognition of FXI on Western blot” value (Human FXI in plasma) was “single band at 160 kDa”, the “recognition of FXI on Western blot” value (Human FXI in plasma; listed as 1A6) was “recognizes” and the “binding to FXI A3 domain mutants” value [1] was “did not bind to some mutants”. For the same molecule, the “Platelet aggregation in response to ADP and collagen” value (platelet rich plasma) was “unchanged”, the “initial platelet accumulation rate versus vehicle” value (baboons (Papio anubis)) was “similar” and the thrombus stability (baboons (Papio anubis); 2120 s^-1) was “unstable; also recorded: profoundly reduced”. The Number occluded (baboons (Papio anubis); 60 min) was 0/5, the graft occlusion (baboons (Papio anubis); 60 min-long studies (FIG. 5)) was “did not occlude the grafts” and the “time after initiation of blood perfusion when growth rate of platelet thrombus was reduced” value (baboons (Papio anubis); all treated animals) was 12 to 15 min. For the same molecule, the “Embolic events per experiment” value (baboons (Papio anubis); mean ± SEM) was 6.6 ± 0.9, the “Fibrin deposition” value (baboons (Papio anubis); mean ± SEM, control 0.30 ± 0.04) was 0.18 ± 0.02 mg and the grafts remained patent (baboons (Papio anubis); over 60 min) was 5 of 5.
